Test results as given in US20230227508A1, “SPLIT INTEIN-BASED SELECTION FOR PEPTIDE BINDERS” (priority 2020, published 2023).

Target: Expi293F human cell-derived and purified SARS-CoV-2 RBD (RBD296-531) (SARS-CoV-2), P0DTC2

GVCKYGEWCEIVEI (modifications not checked) [AMK-1057 (purified, PapB-modified 14 aa thioether-cyclized peptide)]
Kd: 990 nM
